Test results: patent US20200223889A1 (Novo Nordisk, published 2020)
Positions of bridges follow the written chain, without caps; N, C: chain ends. Non-standard residues stand in square brackets, D forms with d. Phe(3,4-(OMe)2) = COc1ccc(C[C@H](N)C(=O)O)cc1OC; Phe(3,4-Cl2) = N[C@@H](Cc1ccc(Cl)c(Cl)c1)C(=O)O; Phe(4-CN) = N#Cc1ccc(C[C@H](N)C(=O)O)cc1; 1Nal = N[C@@H](Cc1cccc2ccccc12)C(=O)O; 2Nal = N[C@@H](Cc1ccc2ccccc2c1)C(=O)O; Hyp = O=C(O)[C@@H]1C[C@@H](O)CN1; Cit = NC(=O)NCCC[C@H](N)C(=O)O; Pip = O=C(O)[C@@H]1CCCCN1; Thz = O=C(O)[C@@H]1CSCN1; Aze = O=C(O)[C@@H]1CCN1; Sar = CNCC(=O)O

B1: Chem. 65 (peptide)
peptide: cyclo(CAH[dF]R[Phe(4-CN)]CAKKKW)
modifications: disulfide 1-7
SMILES: C[C@@H]1NC(=O)[C@@H]2CSSC[C@H](NC(=O)[C@H](Cc3ccc(C#N)cc3)NC(=O)[C@H](CCCNC(=N)N)NC(=O)[C@@H](Cc3ccccc3)NC(=O)[C@H](Cc3c[nH]cn3)NC1=O)C(=O)N[C@@H](C)C(=O)N[C@@H](CCCCN)C(=O)N[C@@H](CCCCN)C(=O)N[C@@H](CCCCN)C(=O)N[C@@H](Cc1c[nH]c3ccccc13)C(=O)N2
notes: also called c[c[Cys-Ala-His-D-Phe-Arg-4-CN-Phe-Cys]-Ala-Lys-Lys-Lys-Trp]
B2: Chem. 73 (peptide)
peptide: cyclo(C[Sar]H[dF]HWCAKKKW)
modifications: disulfide 1-7
SMILES: C[C@@H]1NC(=O)[C@@H]2CSSC[C@H](NC(=O)[C@H](Cc3c[nH]c4ccccc34)NC(=O)[C@H](CCCCN)NC(=O)[C@H](CCCCN)NC(=O)[C@H](CCCCN)NC1=O)C(=O)N(C)CC(=O)N[C@@H](Cc1c[nH]cn1)C(=O)N[C@H](Cc1ccccc1)C(=O)N[C@@H](Cc1c[nH]cn1)C(=O)N[C@@H](Cc1c[nH]c3ccccc13)C(=O)N2
notes: also called c[c[Cys-Sar-His-D-Phe-His-Trp-Cys]-Ala-Lys-Lys-Lys-Trp]
B3: Chem. 63 (peptide)
peptide: XAHFRWCAHXRW
modifications: Pen 1; D-Phe 4, 10; disulphide Pen1-Cys7; head-to-tail amide Pen1-Trp12
notes: also called c[c[Pen-Ala-His-D-Phe-Arg-Trp-Cys]-Ala-His-D-Phe-Arg-Trp]
B4: Chem. 69 (peptide)
peptide: cyclo(CAH[dF]RWRCAH[dF]RWR)
modifications: disulfide 1-8
SMILES: C[C@@H]1NC(=O)[C@@H]2CSSC[C@H](NC(=O)[C@H](CCCNC(=N)N)NC(=O)[C@H](Cc3c[nH]c4ccccc34)NC(=O)[C@H](CCCNC(=N)N)NC(=O)[C@@H](Cc3ccccc3)NC(=O)[C@H](Cc3c[nH]cn3)NC1=O)C(=O)N[C@@H](C)C(=O)N[C@@H](Cc1c[nH]cn1)C(=O)N[C@H](Cc1ccccc1)C(=O)N[C@@H](CCCNC(=N)N)C(=O)N[C@@H](Cc1c[nH]c3ccccc13)C(=O)N[C@@H](CCCNC(=N)N)C(=O)N2
notes: also called c[c[Cys-Ala-His-D-Phe-Arg-Trp-Arg-Cys]-Ala-His-D-Phe-Arg-Trp-Arg]
B5: Chem. 72 (peptide)
peptide: cyclo(CPH[dF][Cit]WCAKKKR)
modifications: disulfide 1-7
SMILES: C[C@@H]1NC(=O)[C@@H]2CSSC[C@H](NC(=O)[C@H](CCCNC(=N)N)NC(=O)[C@H](CCCCN)NC(=O)[C@H](CCCCN)NC(=O)[C@H](CCCCN)NC1=O)C(=O)N1CCC[C@H]1C(=O)N[C@@H](Cc1c[nH]cn1)C(=O)N[C@H](Cc1ccccc1)C(=O)N[C@@H](CCCNC(N)=O)C(=O)N[C@@H](Cc1c[nH]c3ccccc13)C(=O)N2
notes: Printed shorthand is identical to that of Chem. 99; the drawings may differ; also called c[c[Cys-Pro-His-D-Phe-Cit-Trp-Cys]-Ala-Lys-Lys-Lys-Arg]
B6: Chem. 83 (peptide)
peptide: cyclo(C[Pip]H[dF]HWCAKKKW)
modifications: disulfide 1-7
notes: also called c[c[Cys-PIP-His-D-Phe-His-Trp-Cys]-Ala-Lys-Lys-Lys-Trp]
B7: Chem. 81 (peptide)
peptide: cyclo(C[Thz]H[dF]HWCAKKKW)
modifications: disulfide 1-7
SMILES: C[C@@H]1NC(=O)[C@@H]2CSSC[C@H](NC(=O)[C@H](Cc3c[nH]c4ccccc34)NC(=O)[C@H](CCCCN)NC(=O)[C@H](CCCCN)NC(=O)[C@H](CCCCN)NC1=O)C(=O)N1CSC[C@H]1C(=O)N[C@@H](Cc1c[nH]cn1)C(=O)N[C@H](Cc1ccccc1)C(=O)N[C@@H](Cc1c[nH]cn1)C(=O)N[C@@H](Cc1c[nH]c3ccccc13)C(=O)N2
notes: also called c[c[Cys-THAZ-His-D-Phe-His-Trp-Cys]-Ala-Lys-Lys-Lys-Trp]
B8: Chem. 66 (peptide)
peptide: cyclo(CAH[dF]R[Phe(3,4-Cl2)]CAKKKW)
modifications: disulfide 1-7
SMILES: C[C@@H]1NC(=O)[C@@H]2CSSC[C@H](NC(=O)[C@H](Cc3ccc(Cl)c(Cl)c3)NC(=O)[C@H](CCCNC(=N)N)NC(=O)[C@@H](Cc3ccccc3)NC(=O)[C@H](Cc3c[nH]cn3)NC1=O)C(=O)N[C@@H](C)C(=O)N[C@@H](CCCCN)C(=O)N[C@@H](CCCCN)C(=O)N[C@@H](CCCCN)C(=O)N[C@@H](Cc1c[nH]c3ccccc13)C(=O)N2
notes: also called c[c[Cys-Ala-His-D-Phe-Arg-3,4-DiCl-Phe-Cys]-Ala-Lys-Lys-Lys-Trp]
B9: Chem. 67 (peptide)
peptide: cyclo(CAH[dF]R[Phe(3,4-(OMe)2)]CAKKKW)
modifications: disulfide 1-7
SMILES: COc1ccc(C[C@@H]2NC(=O)[C@H](CCCNC(=N)N)NC(=O)[C@@H](Cc3ccccc3)NC(=O)[C@H](Cc3c[nH]cn3)NC(=O)[C@H](C)NC(=O)[C@@H]3CSSC[C@H](NC2=O)C(=O)N[C@@H](C)C(=O)N[C@@H](CCCCN)C(=O)N[C@@H](CCCCN)C(=O)N[C@@H](CCCCN)C(=O)N[C@@H](Cc2c[nH]c4ccccc24)C(=O)N3)cc1OC
notes: also called c[c[Cys-Ala-His-D-Phe-Arg-3,4-DiMeo-Phe-Cys]-Ala-Lys-Lys-Lys-Trp]
B10: Chem. 70 (peptide)
peptide: cyclo(C[Hyp]H[dF]HWCAKKKW)
modifications: disulfide 1-7
SMILES: C[C@@H]1NC(=O)[C@@H]2CSSC[C@H](NC(=O)[C@H](Cc3c[nH]c4ccccc34)NC(=O)[C@H](CCCCN)NC(=O)[C@H](CCCCN)NC(=O)[C@H](CCCCN)NC1=O)C(=O)N1C[C@H](O)C[C@H]1C(=O)N[C@@H](Cc1c[nH]cn1)C(=O)N[C@H](Cc1ccccc1)C(=O)N[C@@H](Cc1c[nH]cn1)C(=O)N[C@@H](Cc1c[nH]c3ccccc13)C(=O)N2
notes: also called c[c[Cys-Hyp-His-D-Phe-His-Trp-Cys]-Ala-Lys-Lys-Lys-Trp]
B11: Chem. 68 (peptide)
peptide: cyclo(CH[dF]RWRCH[dF]RWR)
modifications: disulfide 1-7
SMILES: N=C(N)NCCC[C@@H]1NC(=O)[C@H](Cc2c[nH]c3ccccc23)NC(=O)[C@H](CCCNC(=N)N)NC(=O)[C@@H](Cc2ccccc2)NC(=O)[C@H](Cc2c[nH]cn2)NC(=O)[C@@H]2CSSC[C@H](NC1=O)C(=O)N[C@@H](Cc1c[nH]cn1)C(=O)N[C@H](Cc1ccccc1)C(=O)N[C@@H](CCCNC(=N)N)C(=O)N[C@@H](Cc1c[nH]c3ccccc13)C(=O)N[C@@H](CCCNC(=N)N)C(=O)N2
notes: also called c[c[Cys-His-D-Phe-Arg-Trp-Arg-Cys]-His-D-Phe-Arg-Trp-Arg]
B12: Chem. 7 (peptide)
peptide: cyclo(AAH[dF]RWAAH[dF]RW)
SMILES: C[C@@H]1NC(=O)[C@H](C)NC(=O)[C@H](Cc2c[nH]c3ccccc23)NC(=O)[C@H](CCCNC(=N)N)NC(=O)[C@@H](Cc2ccccc2)NC(=O)[C@H](Cc2c[nH]cn2)NC(=O)[C@H](C)NC(=O)[C@H](C)NC(=O)[C@H](Cc2c[nH]c3ccccc23)NC(=O)[C@H](CCCNC(=N)N)NC(=O)[C@@H](Cc2ccccc2)NC(=O)[C@H](Cc2c[nH]cn2)NC1=O
notes: also called c[Ala-Ala-His-D-Phe-Arg-Trp-Ala-Ala-His-D-Phe-Arg-Trp]
B13: Chem. 79 (peptide)
peptide: cyclo(CAH[dF]R[2Nal]CAKKKW)
modifications: disulfide 1-7
SMILES: C[C@@H]1NC(=O)[C@@H]2CSSC[C@H](NC(=O)[C@H](Cc3ccc4ccccc4c3)NC(=O)[C@H](CCCNC(=N)N)NC(=O)[C@@H](Cc3ccccc3)NC(=O)[C@H](Cc3c[nH]cn3)NC1=O)C(=O)N[C@@H](C)C(=O)N[C@@H](CCCCN)C(=O)N[C@@H](CCCCN)C(=O)N[C@@H](CCCCN)C(=O)N[C@@H](Cc1c[nH]c3ccccc13)C(=O)N2
notes: also called c[c[Cys-Ala-His-D-Phe-Arg-2-Nal-Cys]-Ala-Lys-Lys-Lys-Trp]
B14: Chem. 64 (peptide)
peptide: cyclo(CAH[dF]R[1Nal]CAKKKW)
modifications: disulfide 1-7
SMILES: C[C@@H]1NC(=O)[C@@H]2CSSC[C@H](NC(=O)[C@H](Cc3cccc4ccccc34)NC(=O)[C@H](CCCNC(=N)N)NC(=O)[C@@H](Cc3ccccc3)NC(=O)[C@H](Cc3c[nH]cn3)NC1=O)C(=O)N[C@@H](C)C(=O)N[C@@H](CCCCN)C(=O)N[C@@H](CCCCN)C(=O)N[C@@H](CCCCN)C(=O)N[C@@H](Cc1c[nH]c3ccccc13)C(=O)N2
notes: also called c[c[Cys-Ala-His-D-Phe-Arg-1-Nal-Cys]-Ala-Lys-Lys-Lys-Trp]
B15: Chem. 82 (peptide)
peptide: cyclo(C[Aze]H[dF]HWCAKKKW)
modifications: disulfide 1-7
SMILES: C[C@@H]1NC(=O)[C@@H]2CSSC[C@H](NC(=O)[C@H](Cc3c[nH]c4ccccc34)NC(=O)[C@H](CCCCN)NC(=O)[C@H](CCCCN)NC(=O)[C@H](CCCCN)NC1=O)C(=O)N1CC[C@H]1C(=O)N[C@@H](Cc1c[nH]cn1)C(=O)N[C@H](Cc1ccccc1)C(=O)N[C@@H](Cc1c[nH]cn1)C(=O)N[C@@H](Cc1c[nH]c3ccccc13)C(=O)N2
notes: also called c[c[Cys-AZE-His-D-Phe-His-Trp-Cys]-Ala-Lys-Lys-Lys-Trp]

Biological target: T1, human melanocortin 4 receptor (human, UniProt P32245 1-332)
T1 construct: whole, on cells; cAMP assay on whole BHK cells; also called MC4R; human MC4 receptor
Assay: competition with 125-NDP-α-MSH, BHK human MC4R membranes
Description: In order to assess the binding affinity of the selected compounds for the human MC4R competitive binding assays was performed with radiolabeled NDP-alpha MSH (¹²⁵NDP-α-MSH).
The assay was performed in 96-well filterplates (Unifilter) using BHK cells stably expressing the human MC4 receptor.
The BHK cell membranes were prepared from frozen or fresh cells that were homogenized in 20 mM HEPES pH 7.1, 5 mM MgCl₂, 1 mg/ml bacitracin (buffer 1) and centrifuged at 15000 rpm at 4° C., 10 min in a Sorvall RC 5B plus, SS-34 rotor. The supernatant was discarded, and the pellets were re-suspended in buffer 1, homogenized and centrifuged two more times. The final pellets were re-suspended in buffer 1 and the protein concentration was measured and adjusted with buffer 1 to 5 mg/ml and the membrane preparation was kept at −80° C. until assay. The assay was run on a dilution of this cell membrane suspension without any further preparation. The suspension was diluted to give maximally 10% specific binding, i.e. to approx. 50-100 fold dilution, optimized after each membrane preparation. The assay was performed in a total volume of 200 μl: 50 μl of cell suspension, 50 μl of ¹²⁵NDP-α-MSH (apx. […] in final concentration), 50 μl of test compound and 50 μl binding buffer were mixed and incubated for 2 h at 25° C. (binding buffer: 25 mM HEPES, pH 7.0, 1 mM CaCl₂), 1 mM MgSO₄, 1 mM EGTA, 0.005% Tween™ 20 and 0.1% HSA or, alternatively, 0.1% ovalbumin (Sigma; catalogue No. A-5503)). Test compounds were dissolved in 100% DMSO and diluted in binding buffer in a dose range from 1 μM to 0.001 nM. Radiolabelled ligand and membranes were diluted in binding buffer. The incubation was stopped by dilution with 8×100 μl ice-cold 0.9% NaCl. The radioactivity retained on the filters was counted using a Packard Topcounter. The data were analysed by non-linear regression analysis of binding curves, using the Windows™ program GraphPad™ Prism (GraphPad Software, USA).

T1 sequence (P32245 whole entry): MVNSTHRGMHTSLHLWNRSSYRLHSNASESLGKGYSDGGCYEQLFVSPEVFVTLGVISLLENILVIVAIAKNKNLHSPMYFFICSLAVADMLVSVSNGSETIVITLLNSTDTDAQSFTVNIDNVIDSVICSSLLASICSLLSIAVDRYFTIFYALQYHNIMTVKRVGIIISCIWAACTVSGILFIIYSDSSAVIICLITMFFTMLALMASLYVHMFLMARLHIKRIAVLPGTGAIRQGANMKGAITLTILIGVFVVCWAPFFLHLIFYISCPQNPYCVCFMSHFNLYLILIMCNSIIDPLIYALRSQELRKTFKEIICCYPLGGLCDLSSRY

| Binder | Ki [nM] |
| --- | --- |
| B1 | 0.47 |
| B2 | 0.3 |
| B3 | 0.08 |
| B4 | 4.65 |
| B5 | 0.03 |
| B6 | 0.17 |
| B7 | 0.03 |
| B8 | 0.03 |
| B9 | 0.95 |
| B10 | 0.07 |
| B11 | 10.4 |
| B12 | 0.47 |
| B13 | 0.03 |
| B14 | 0.09 |
| B15 | 0.07 |

Biological target: T1, human melanocortin 4 receptor
Assay: cell-based or functional assay

| Binder | MC4R cAMP EC50 [nM] |
| --- | --- |
| B1 | 0.42 |
| B2 | 1.26 |
| B3 | 0.02 |
| B4 | 1.52 |
| B5 | 0.03 |
| B6 | 2.15 |
| B7 | 0.07 |
| B8 | 0.01 |
| B9 | 2.99 |
| B10 | 0.38 |
| B11 | 4.35 |
| B12 | 0.06 |
| B13 | 0.02 |
| B14 | 0.03 |
| B15 | 0.53 |

Biological target: human melanocortin 1 receptor (human, UniProt Q01726 1-317)
Assay: cell-based or functional assay

human melanocortin 1 receptor, sequence (Q01726 whole entry): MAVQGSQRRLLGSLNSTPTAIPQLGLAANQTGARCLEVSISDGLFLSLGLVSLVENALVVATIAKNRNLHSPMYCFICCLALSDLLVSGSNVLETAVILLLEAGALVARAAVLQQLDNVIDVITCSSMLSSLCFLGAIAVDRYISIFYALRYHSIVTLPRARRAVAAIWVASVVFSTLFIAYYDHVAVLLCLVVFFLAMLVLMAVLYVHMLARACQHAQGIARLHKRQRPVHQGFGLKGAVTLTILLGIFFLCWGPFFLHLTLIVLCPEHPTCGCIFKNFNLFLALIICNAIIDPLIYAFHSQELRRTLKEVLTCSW

| Binder | MC1R cAMP EC50 [nM] |
| --- | --- |
| B1 | 10.8 |
| B2 | > 50 |
| B3 | 0.84 |
| B4 | 6.9 |
| B5 | 5.86 |
| B6 | > 10 |
| B7 | 67 |
| B8 | 0.22 |
| B9 | > 55 |
| B10 | 75.7 |
| B11 | 4.87 |
| B12 | 4.56 |
| B13 | 1.16 |
| B14 | 4.23 |
| B15 | 94.3 |
